The target in this assay is SNA I lectin from Sambucus nigra (Sambucus nigra). Kind of assay: electrochemical impedance spectroscopy.
Sequence of SNA I lectin from Sambucus nigra (Sambucus nigra) (Q41358 29-289 limits assumed, chain 1 of 2): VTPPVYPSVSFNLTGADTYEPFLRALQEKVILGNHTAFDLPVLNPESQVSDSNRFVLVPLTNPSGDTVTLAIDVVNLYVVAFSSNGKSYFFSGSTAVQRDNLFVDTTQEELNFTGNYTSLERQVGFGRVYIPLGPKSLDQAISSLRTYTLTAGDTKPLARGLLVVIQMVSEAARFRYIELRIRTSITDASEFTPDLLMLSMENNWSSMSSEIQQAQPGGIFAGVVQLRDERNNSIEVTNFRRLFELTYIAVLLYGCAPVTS
Sequence of SNA I lectin from Sambucus nigra (Sambucus nigra) (Q41358 309-570 limits assumed, chain 2 of 2): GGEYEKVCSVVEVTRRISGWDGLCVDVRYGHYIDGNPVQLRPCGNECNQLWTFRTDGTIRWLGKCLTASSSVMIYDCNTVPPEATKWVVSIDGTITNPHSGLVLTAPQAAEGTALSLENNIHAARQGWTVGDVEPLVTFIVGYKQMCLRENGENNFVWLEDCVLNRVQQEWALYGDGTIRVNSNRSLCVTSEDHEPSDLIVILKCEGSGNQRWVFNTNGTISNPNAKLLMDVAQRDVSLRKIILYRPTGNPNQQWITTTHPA

B1: fetuin (natural protein)
chain: IPLDPVAGYKEPACDDPDTEQAALAAVDYINKHLPRGYKHTLNQIDSVKVWPRRPTGEVYDIEIDTLETTCHVLDPTPLANCSVRQQTQHAVEGDCDIHVLKQDGQFSVLFTKCDSSPDSAEDVRKLCPDCPLLAPLNDSRVVHAVEVALATFNAESNGSYLQLVEISRAQFVPLPVSVSVEFAVAATDCIAKEVVDPTKCNLLAEKQYGFCKGSVIQKALGGEDVRVTCTLFQTQPVIPQPQPDGAEAEAPSAVPDAAGPTPSAAGPPVASVVVGPSVVAVPLPLHRAHYDLRHTFSGVASVESSSGEAFHVGKTPIVGQPSIPGGPVRLCPGRIRYFKI
As to B1, the specific sensitivity (OxASF subtracted) is 259 Ω decade^-1.
